Measured values published in US20250136687A1 (SHANDONG SIMCERE BIOPHARMACEUTICAL, published 2025).
Read-outs that look alike come from different tables or passages of the source. One block for each binder: values may come before it.

Assays:
[1] = target: T1, human CD3 on the cell surface (Jurkat cells, expanded human T cells, Jurkat-Lucia NFAT cells, human PBMC) (human, UniProt P07766 23-207; P04234 22-171; P09693 23-182); assay: cell-based or functional assay
[2] = target: T2, recombinant human CD3ε-ECD His protein (human, UniProt P07766 23-126); assay: SPR (Biacore), antibody captured on Protein A chip
T2 construct: extracellular domain; also called human CD3ε-His; CD3ε antigen protein; not shown: His tag
Method: Sample buffer and running buffer were HBS-EP+(10 mM HEPES, 150 mM NaCl, 3 mM EDTA, 0.05% surfactant P20) (GE Healthcare; BR-1006-69). The flow-through cell was set to 25° C. The sample block was set to 16° C. Both were pretreated with the running buffer. In each cycle, the antibody to be detected was first captured with a Protein A chip, and then a single concentration of CD3ε antigen protein (purchased from Sino Biological, Inc. (China), catalog number: 10977-H08H) was injected. The binding and dissociation processes of the antibody and the antigen protein were recorded, and finally a glycine solution (pH 1.5, GE Healthcare; BR-1003-54) was used to complete chip regeneration. The binding was measured by injecting different concentrations of recombinant human CD3ε-ECD His proteins in a solution for 240 s with a flow rate of 30 μL/min. The concentration started from 200 nM (see the detailed results for the actual concentration in the test) and was diluted at 1:1, making a total of 5 concentrations. The dissociation phase was monitored for up to 600 s and was triggered by switching from sample solution to running buffer. The surface was regenerated by washing with a 10 mM glycine solution (pH 1.5) for 30 s at a flow rate of 30 μL/min. Bulk refractive index difference was corrected by subtracting the response obtained from the goat anti-human Fc surface. Blank injection was also subtracted (=double reference). For calculation of apparent KD and other kinetic parameters, Langmuir 1:1 model was used.

[3] = target: T3, cynomolgus monkey CD3 on the surface of expanded monkey T cells (cynomolgus monkey, UniProt Q95LI5 22-198; Q95LI8 22-171; Q95LI7 23-181); assay: FACS, expanded monkey T cells, 4 nM antibody
T3 construct: whole, on cells; Endogenous CD3 within the TCR-CD3 complex on T cells expanded from cynomolgus monkey PBMC
Method: (§1) The binding of the chimeric antibodies to CD3 on the cell surface was analyzed by detecting the binding of the antibodies to Jurkat cells and human T cells. Suspension cells Jurkat cells were scale-up cultured in T-75 cell culture flasks to the logarithmic growth phase, the supernatant of the medium was discarded by centrifugation, and the cell pellet was washed 2 times with PBS for later use. The expanded human T cells were washed 2 times with PBS for later use. After counting the cells in the previous step, the cell pellet was resuspended with [PBS+2% (w/w) BSA] blocking solution to 4×10⁶ cells/ml, and added to a 96-well FACS reaction plate at 50 μl/well, and then the chimeric antibody to be tested was added at 50 μl/well, and incubated at 4° C. for 1 h. The cells were centrifuged and washed 3 times with a PBS buffer. […] The cells were centrifuged and washed 5 times with PBS, and FACS (FACS Canto™, purchased from BD Company) was used for detection and result analysis. Data analysis was performed by software (CellQuest) to obtain the mean fluorescence […] (MFI) of the cells. And then software (GraphPad Prism8) was used for analysis, data fitting, and EC50 value calculation. The same method was used to simultaneously detect the binding of the chimeric antibodies to endogenous CD3 negative cells MOLT4 cells.
(§2) FACS detection and data analysis were performed on the cryopreserved monkey T cells of Example 2.4 according to the method in Example 5.1.

[4] = target: T1, human CD3 on the cell surface (Jurkat …); assay: FACS, expanded human T cells
Method: as §1

human CD3ε/δ-His [5] = target: T4, human CD3ε/δ-His (human, UniProt P07766 23-126; P04234 22-105); assay: ELISA, coated antigen
T4 construct: Bought recombinant heterodimer with His tag; also called human CD3ε/δ protein
Method: (§3) To detect the binding activity of the humanized antibodies to CD3 protein, CD3 protein was diluted with PBS to the final concentration of […], then added to a 96-well ELISA plate at 50 μL/well, and the plate was sealed with a plastic film, and incubated overnight at 4° C. On the next day, the plate was washed 2 times with PBS, and a blocking solution [PBS+2% (v/v) BSA] was added for blocking at room temperature for 2 h. The blocking solution was poured off, and the antibody (initial concentration of 100 nM, and gradient dilution at 1:10) or a negative control antibody was added at 50 µl/well. After incubation at 37° C. for 2 h, the plate was washed 3 times with PBS. […] TMB substrate was added at 50 μl/well, and incubated at room temperature for 10 min, and then a stop solution (1.0 N HCl) was added at 50 μl/well. The OD450 nm values were read by an ELISA microplate reader (Multimode Plate Reader, EnSight, purchased from Perkin Elmer).

[6] = target: T2, recombinant human CD3ε-ECD His protein; assay: ELISA, coated antigen
Method: as §3

human CD3ε/δ-His [7] = target: T4, human CD3ε/δ-His; assay: ELISA, coated antigen; remark: listed apart in the source
Method: as §3

[8] = target: T2, recombinant human CD3ε-ECD His protein; assay: ELISA, coated antigen; remark: listed apart in the source
Method: as §3

[9] = target: T1, human CD3 on the cell surface (Jurkat …); assay: FACS, expanded human T cells; remark: listed apart in the source
Method: as §1
The expanded human PBMC cells were collected, and FACS detection and data analysis were performed according to the method in Example 5.1.

human CD3ε/δ-His [10] = target: T4, human CD3ε/δ-His; assay: ELISA, coated antigen; remark: listed apart in the source
Method: as §3

[11] = target: T2, recombinant human CD3ε-ECD His protein; assay: ELISA, coated antigen; remark: listed apart in the source
Method: as §3

[12] = target: T1, human CD3 on the cell surface (Jurkat …); assay: FACS, expanded human T cells; remark: listed apart in the source
Method: as §1

[13] = target: T1, human CD3 on the cell surface (Jurkat …); assay: cell-based or functional assay; remark: listed apart in the source
[14] = target: T1, human CD3 on the cell surface (Jurkat …); assay: FACS, Jurkat cells
Method: as §1

[15] = target: T3, cynomolgus monkey CD3 on the surface of …; assay: FACS, expanded monkey T cells
Method: as §1, §2

human CD3ε/δ-His [16] = target: T4, human CD3ε/δ-His; assay: SPR, antibody captured on Protein A chip
Method: (§4) Running buffer was HBS-EP+(10 mM HEPES, 150 mM NaCl, 3 mM EDTA, 0.05% surfactant P20) (GE Healthcare; BR-1006-69). The flow-through cell was set to 25° C. The sample block was set to 16° C. Both were pretreated with the running buffer. In each cycle, an antibody to be detected was first captured with a Protein A chip, and then a single concentration of CD3ε antigen protein was injected. The binding and dissociation processes of the antibody and the antigen protein were recorded, and finally Glycine pH 1.5 (GE Healthcare; BR-1003-54) was used to complete chip regeneration. The binding was measured by injecting different concentrations of recombinant human CD3ε proteins in a solution for 240 s with a flow rate of 30 μL/min. The concentration started from 200 nM (see the detailed results for the actual concentration in the test) and was diluted at 1:1, making a total of 5 concentrations. The dissociation phase was monitored for up to 600 s and was triggered by switching from sample solution to running buffer. The surface was regenerated by washing with a 10 mM glycine solution (pH 1.5) for 30 s at a flow rate of 30 μL/min. Bulk refractive index difference was corrected by subtracting the response obtained from the goat anti-human Fc surface, and the blank injection was subtracted at the same time (=double reference). For calculation of apparent KD value and other kinetic parameters, Langmuir 1:1 model was used.

[17] = target: T2, recombinant human CD3ε-ECD His protein; assay: SPR, antibody captured on Protein A chip
Method: as §4

monkey CD3ε protein = target: T5, monkey CD3ε protein (monkey, UniProt Q95LI5 22-117, limits assumed); assay: ELISA, coated antigen
T5 sequence (looked up): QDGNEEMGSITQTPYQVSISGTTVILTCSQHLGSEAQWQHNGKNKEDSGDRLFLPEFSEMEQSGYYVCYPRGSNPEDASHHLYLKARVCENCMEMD
Method: as §3
(§5) To detect the binding activity of the humanized antibodies to monkey CD3 protein, CD3 protein was diluted with PBS to the final concentration of […], and then added to a 96-well ELISA plate at 50 μl/well.

monkey CD3ε/δ-His = target: T6, monkey CD3ε/δ-His (monkey, UniProt Q95LI5 22-117; Q95LI8 22-105); assay: ELISA, coated antigen
T6 construct: Bought recombinant heterodimer with His tag
Method: as §3, §5

[18] = target: T3, cynomolgus monkey CD3 on the surface of …; assay: FACS, expanded monkey T cells; remark: listed apart in the source
Method: as §1
The expanded monkey T cells were collected, and FACS detection and data analysis were performed according to the method in Example 5.1.

T4 sequence (P07766 23-126, stated change not applied, form in doubt, chain 1 of 2): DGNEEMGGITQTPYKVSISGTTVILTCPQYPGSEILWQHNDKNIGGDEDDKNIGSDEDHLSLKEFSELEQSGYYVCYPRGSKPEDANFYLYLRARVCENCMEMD
T4 sequence (P04234 22-105, stated change not applied, form in doubt, chain 2 of 2): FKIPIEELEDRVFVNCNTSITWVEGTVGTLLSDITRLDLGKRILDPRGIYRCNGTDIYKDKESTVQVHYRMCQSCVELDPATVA
T2 sequence (P07766 23-126): as the sequence (P07766 23-126, stated change not applied, form in doubt, chain 1 of 2) above
T1 sequence (P07766 23-207, chain 1 of 3): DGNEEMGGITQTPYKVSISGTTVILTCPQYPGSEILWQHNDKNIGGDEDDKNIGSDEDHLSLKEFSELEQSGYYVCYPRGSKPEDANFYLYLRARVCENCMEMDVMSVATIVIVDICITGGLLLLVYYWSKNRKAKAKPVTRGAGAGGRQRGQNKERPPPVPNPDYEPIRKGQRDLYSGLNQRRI
T1 sequence (P04234 22-171, chain 2 of 3): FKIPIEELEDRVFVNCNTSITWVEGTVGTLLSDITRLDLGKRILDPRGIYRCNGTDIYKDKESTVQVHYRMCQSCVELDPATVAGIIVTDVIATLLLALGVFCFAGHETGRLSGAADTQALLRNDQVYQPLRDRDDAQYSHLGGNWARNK
T1 sequence (P09693 23-182, chain 3 of 3): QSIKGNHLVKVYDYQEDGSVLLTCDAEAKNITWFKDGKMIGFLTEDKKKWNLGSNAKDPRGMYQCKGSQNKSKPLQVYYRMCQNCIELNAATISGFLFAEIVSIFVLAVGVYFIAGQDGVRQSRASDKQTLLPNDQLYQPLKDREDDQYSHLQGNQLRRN
T6 sequence (Q95LI8 22-105, stated change not applied, form in doubt, chain 2 of 2, one chain of several): as the sequence (P04234 22-105, stated change not applied, form in doubt, chain 2 of 2) above, with I5V, N15K, I20V, S32T, D33N, I34N, T64A, S74N, V83L counted along it

EC50 (human CD3ε/δ-His [5]): 23.4 nM
max-OD450 (human CD3ε/δ-His [5]): 1.31 OD450
max-OD450 [6]: 0.06 OD450
EC50 (human CD3ε/δ-His [7]): 23.4 nM
max-OD450 (human CD3ε/δ-His [7]): 1.31 OD450
max-OD450 [8]: 0.15 OD450
EC50 [9]: 4.72 nM
max_MFI [9]: 20900 MFI
EC50 (human CD3ε/δ-His [10]): 23.4 nM
max-OD450 (human CD3ε/δ-His [10]): 1.31 OD450
max-OD450 [11]: 0.05 OD450
B2: 7221G20-hIgG1 (antibody, V domains shown)
VH: EVQLVESGGGLVQPGRSLRLSCAASGFTFDDYSMHWVRQAPGKGLEWVSGISWNSGSIGYADSVKGRFTISRDNAKNSLYLQMNSLRAEDTALYYCAKYGSGYGKFYYYGMDVWGQGTTVTVSS
VL: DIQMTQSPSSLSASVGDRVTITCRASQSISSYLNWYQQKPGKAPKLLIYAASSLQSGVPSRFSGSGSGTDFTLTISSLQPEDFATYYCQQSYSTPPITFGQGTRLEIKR
binding result [8]: no binding (tested: 100 nM (initial concentration))

Kd (human CD3ε/δ-His [16]): 69 nM
koff (human CD3ε/δ-His [16]): 0.0339 s⁻¹
kon (human CD3ε/δ-His [16]): 491000 M⁻¹ s⁻¹
Kd [17]: 0.669 nM
koff [17]: 0.000311 s⁻¹
kon [17]: 466000 M⁻¹ s⁻¹
EC50 (monkey CD3ε protein): 0.00947 pM
max-OD450 (monkey CD3ε protein): 2.84 OD450
EC50 (monkey CD3ε/δ-His): 0.000225 nM
max-OD450 (monkey CD3ε/δ-His): 3.07 OD450
EC50 [18]: 0.17 nM
max_MFI [18]: 24800 MFI
EC50 (human CD3ε/δ-His [5]): 0.03 nM
max-OD450 (human CD3ε/δ-His [5]): 3.05 OD450
EC50 [6]: 0.09 nM
max-OD450 [6]: 2.7 OD450
EC50 [9]: 0.43 nM
max_MFI [9]: 34000 MFI
B4: 6-44.5-H1-L2 humanized antibody (antibody, human IgG1, kappa, V domains shown)
VH: EVQLVQSGAEVKKPGSSVKVSCKASGHTFSSHIMHWVRQAPGQGLEWMGYINPNNDRTEYSEKFKGRVTITADKSTSTAYMELSSLRSEDTAVYYCAGEAYYSNSLYAMDYWGQGTTVTVSS
VL: DIVMTQSPDSLAVSLGERATINCKSSQSLFNSRTRKNYLAWYQQKPGQSPKLLIYWASTRESGVPDRFSGSGSGTDFTLTISSLQAEDVAVYYCKQSYYLRTFGGGTKVEIKR

The remaining lines, values behind:

B1: 8-18.1 human-murine chimeric antibody (antibody, human IgG1, kappa, V domains shown)
VH: QVQLQQSGAELARPGASVKMSCKASGYIFTMNTMHWVKQRPGQGLEWIGYINPYSGYTKYNQIFKDKATLTADKSSSTAYMRLSSLTSEDSAVYYCLRGGEGVWGQGTTLTVSS
VL: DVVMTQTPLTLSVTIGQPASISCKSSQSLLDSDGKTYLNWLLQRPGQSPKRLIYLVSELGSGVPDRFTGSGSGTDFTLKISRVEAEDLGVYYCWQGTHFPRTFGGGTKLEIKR
notes: Human IgG1 chimera
EC50 (nM), luciferase reporter, Jurkat-Lucia NFAT cells [1]: 11.8 nM
Maximum response value (RLU) [1]: 10400 RLU
Kd [2]: 0.542 nM
koff [2]: 0.000241 s⁻¹
kon [2]: 445000 M⁻¹ s⁻¹
MFI at antibody concentration 4 nM [3]: 16100 MFI
EC50 [4]: 1.58 nM
MFI_Max [4]: 8980 MFI

B3: 1-22.6 human-murine chimeric antibody (antibody, human IgG1, kappa, V domains shown)
VH: QIPLVQSGPELKKPGETVKISCKTSGYTFTSYGMSWVKQAPGKGLKWMGWINTYSGVPTYADDFKGRFVFSLDTSASTAFLQINNLKNEDTATYFCARLKNNPFCWGQGSTLTVFS
VL: DVLMTQSPLSLPVRLGDQASISCRSSQLILHSNGNTYLEWYLQKPGQSPKLLIYKVSNRFSGVPDRFSGSGSGTDFTLKISRVEAEDLGVYYCFQGSHFPWTFGGGTKLEIKR
EC50 [12]: 18.1 nM
MFI_Max [12]: 15100 MFI
EC50 (nM), luciferase reporter, Jurkat-Lucia NFAT cells [13]: 11.6 nM
Maximum response value (RLU) [13]: 31700 RLU
EC50 [14]: 4.28 nM
MFI_Max [14]: 2080 MFI
Kd [2]: 5.51 nM
koff [2]: 0.000699 s⁻¹
kon [2]: 127000 M⁻¹ s⁻¹
EC50 [15]: 5.51 nM
MFI_Max [15]: 43600 MFI
